The values below come from US20200291135A1 (INSPIRNA, published 2020).

Experiment [1] concerns the target T1, extracellular MERTK domain (W3725-hPro1, Sino Biological, 10298-HCCH) (human, UniProt Q12866 21-505).
T1 construct: extracellular domain; also called human extracellular MERTK
T1 sequence (looked up): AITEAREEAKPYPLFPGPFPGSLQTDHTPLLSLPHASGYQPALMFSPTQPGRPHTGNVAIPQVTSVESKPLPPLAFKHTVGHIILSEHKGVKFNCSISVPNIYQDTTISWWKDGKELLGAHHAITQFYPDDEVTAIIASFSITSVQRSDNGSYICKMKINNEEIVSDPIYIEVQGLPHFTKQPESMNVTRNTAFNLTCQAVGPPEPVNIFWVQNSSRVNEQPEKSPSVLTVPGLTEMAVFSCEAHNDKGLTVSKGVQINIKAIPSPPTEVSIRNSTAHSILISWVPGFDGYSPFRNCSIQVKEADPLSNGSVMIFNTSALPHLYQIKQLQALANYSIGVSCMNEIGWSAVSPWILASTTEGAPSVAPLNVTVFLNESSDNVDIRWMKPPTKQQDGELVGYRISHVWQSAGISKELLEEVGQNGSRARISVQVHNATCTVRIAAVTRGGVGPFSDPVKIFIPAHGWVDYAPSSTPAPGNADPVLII
The experiment is described as follows: SPR, affinity format: z10 captured by anti-human Fc on CM5 chip, extracellular MERTK domain as analyte, 1:1 fit; Affinity, SPR. Here is the method: A CM5 sensor chip was activated for 420 s with a mixture of 400 mM EDC and 100 mM NHS. […] The chip was deactivated by 1 M ethanolamine-HCl. […] 10 mM glycine pH 1.5 as regeneration buffer was injected following every dissociation phase. The chip was regenerated with 10 mM glycine pH 1.5. One surface channel (without captured ligand) was used as control surface for reference subtraction. Final data of each interaction was deducted from reference channel and buffer channel data. […] A molecular weight of 54 kDa was used to calculate the molar concentration of the analyte.
A general note: Surface plasmon resonance follows binding to a sensor surface in real time, without labels.

For experiment [2], the target named is T2, human Tyro3 extracellular domain (human, UniProt Q06418 41-429).
T2 construct: extracellular domain; also called hTyro3
T2 sequence (looked up): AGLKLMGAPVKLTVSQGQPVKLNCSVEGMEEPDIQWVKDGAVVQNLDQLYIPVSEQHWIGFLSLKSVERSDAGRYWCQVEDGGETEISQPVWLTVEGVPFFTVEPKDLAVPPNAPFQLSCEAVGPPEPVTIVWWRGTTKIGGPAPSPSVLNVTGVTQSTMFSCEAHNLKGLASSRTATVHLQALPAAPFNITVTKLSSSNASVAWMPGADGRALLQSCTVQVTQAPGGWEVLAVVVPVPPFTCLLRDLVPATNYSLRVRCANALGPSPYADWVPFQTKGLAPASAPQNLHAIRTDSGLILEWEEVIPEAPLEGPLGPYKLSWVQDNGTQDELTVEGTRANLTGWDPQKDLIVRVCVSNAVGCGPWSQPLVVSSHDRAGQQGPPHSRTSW
The experiment is described as follows: competition ELISA: soluble hTyro3-Fc (varied) equilibrated with z10, free z10 caught on plate-coated hMER. As to the method:
(§1) Plates were washed three times with PBS 0.1% Tween and blocked with 3% non-fat dry skim milk in PBS for 2 h.
(§2) During the saturation step, dilutions of the antigen hAxl (RnD Systems, 154-AL-100), hTyro3 (RnD Systems, 859-DK-100) or mMER (RnD Systems, 591-MR-100)] were prepared at 50 nM as the highest concentration, and serially diluted 1:1 to 0.098 nM in PBS. […] Then, the saturated plate was washed three times with PBS 0.1% Tween and the antigen-antibody mixture was added to the wells in duplicate and incubated for 1 h at room temperature. The plate was then washed three times with PBS 0.1% Tween and incubated with anti-human Alkaline Phosphatase antibody (Sigma, SAB 3701248) at a dilution of 1:3000 in PBS for 1 h at room temperature. After washing three times with PBS 0.1% Tween, 100 uL of Alkaline Phosphatase Yellow (pNPP) liquid substrate system (Sigma, P7998) was added in each well and incubated for 70 min at room temperature. Plates were read at 405 nm and at 570 nm, to correct plate inconsistencies, using Glomax Discover System from Promega The absorbance was plotted as a function of antigen concentration and the Kd was calculated using GraphPad Prism 7.0c.
Background: ELISA stands for enzyme-linked immunosorbent assay.

Experiment [3] addresses T3, murine MERTK extracellular domain conjugated to an IgG Fc domain (murine, UniProt Q60805 19-497).
T3 construct: extracellular domain; also called mMER; not shown: IgG Fc domain
T3 sequence (looked up): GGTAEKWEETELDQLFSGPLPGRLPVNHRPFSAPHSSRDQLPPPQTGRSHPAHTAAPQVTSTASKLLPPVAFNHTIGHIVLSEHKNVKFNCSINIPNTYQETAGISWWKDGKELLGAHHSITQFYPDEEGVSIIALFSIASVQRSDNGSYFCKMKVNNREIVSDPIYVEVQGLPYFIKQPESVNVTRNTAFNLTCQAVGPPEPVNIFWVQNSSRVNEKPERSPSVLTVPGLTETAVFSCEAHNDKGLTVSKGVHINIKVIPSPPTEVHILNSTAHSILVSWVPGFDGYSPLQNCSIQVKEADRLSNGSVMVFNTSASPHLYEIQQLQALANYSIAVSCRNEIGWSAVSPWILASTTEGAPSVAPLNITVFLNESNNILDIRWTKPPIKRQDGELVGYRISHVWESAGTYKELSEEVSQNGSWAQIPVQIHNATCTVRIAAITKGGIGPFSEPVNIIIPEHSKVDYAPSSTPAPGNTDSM
The experiment is described as follows: competition ELISA: soluble mMer-Fc (varied) equilibrated with z10, free z10 caught on plate-coated hMER. Here is the method: as §1, §2

Experiment [4] addresses T4, human Axl extracellular domain conjugated to an IgG Fc domain (human, UniProt P30530 26-451).
T4 construct: extracellular domain; also called hAxl; human Ax1; not shown: IgG Fc domain
T4 sequence (looked up): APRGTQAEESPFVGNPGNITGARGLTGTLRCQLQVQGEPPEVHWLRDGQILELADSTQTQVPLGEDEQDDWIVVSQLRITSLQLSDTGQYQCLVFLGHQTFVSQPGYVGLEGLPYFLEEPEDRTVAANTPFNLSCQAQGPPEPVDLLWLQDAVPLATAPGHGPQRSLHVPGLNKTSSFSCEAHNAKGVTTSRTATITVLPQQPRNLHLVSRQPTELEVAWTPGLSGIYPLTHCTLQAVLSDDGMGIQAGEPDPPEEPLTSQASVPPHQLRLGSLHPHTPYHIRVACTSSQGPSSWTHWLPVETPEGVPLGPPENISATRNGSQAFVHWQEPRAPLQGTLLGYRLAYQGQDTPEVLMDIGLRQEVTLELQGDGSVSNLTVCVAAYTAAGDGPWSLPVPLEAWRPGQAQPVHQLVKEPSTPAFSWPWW
The experiment is described as follows: competition ELISA: soluble hAxl-Fc (varied) equilibrated with z10, free z10 caught on plate-coated hMER. As to the method: as §1, §2

B1: z10 antibody (antibody, human IgG1, kappa, V domains shown)
VH: QVQLVQSGAEVKKPGASVKVSCKASGYTFTNYGMNWVRQAPGQGLEWMGWINTYTGEPTYADDFKGRVTFTTDTSTSTAYMELRSLRSDDMAVYYCARKSTVVSRYFDVWGQGTTVTVSS
VL: DIQMTQSPSFLSASVGDRVTITCKASQDVGDAVTWYQQKPGKAPKLLIYWASTRHTGVPDRFSGSGSGTDFTLTISSLQPEDFATYYCQQYRSYPLTFGQGTKLEIKR
notes: also called MERTK (z10) antibody
As a reminder, the Kd is the free concentration of one partner at which half of the binding sites on the other are occupied at equilibrium, for simple one-to-one binding. Low readings indicate tighter binding, high ones weaker binding. On to B1, for which, in experiment [1], the Kd worked out at 3 nM. Moreover, the binding result in experiment [2], in experiment [3] and in experiment [4] was “no binding (tested: 50 nM)” in each case.
